Patent publication US20250320297A1

Target: human PDL1 stably expressed on CHO cells (human) (UniProt Q9NZQ7)
Sequence (Q9NZQ7 19-290 limits assumed): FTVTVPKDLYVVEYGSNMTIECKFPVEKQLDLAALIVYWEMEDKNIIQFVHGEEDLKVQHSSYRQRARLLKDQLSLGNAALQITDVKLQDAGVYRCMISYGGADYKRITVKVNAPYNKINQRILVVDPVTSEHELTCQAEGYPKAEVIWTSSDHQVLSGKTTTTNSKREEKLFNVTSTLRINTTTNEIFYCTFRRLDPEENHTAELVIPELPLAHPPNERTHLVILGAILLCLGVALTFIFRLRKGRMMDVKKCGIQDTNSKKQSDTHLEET

Substance: Reference Ab 1 (analog of MPDL3280A) (antibody)
- EC50; NFAT luciferase reporter (RLU), CHO cells with human PDL1 co-incubated with Jurkat cells with human PD1 and NFAT reporter, blocking of PDL1/PD1: 0.0532 nM
